{"source": "patent US5851983A", "about": "“Elastase inhibitory polypeptide and process for production thereof by recombinant gene technology” (Teijin Limited, priority 1987, dated 1998)", "key": {"[1]": {"molecular_target": "T1, polymorphonuclear leukocyte elastase from human sputum (Homo sapiens, UniProt P08246)", "T1 construct": "Polymorphonuclear leukocyte elastase from human sputum (EPC Co; Funakoshi Yakuhin); purchased EPC Co. (via Funakoshi Yakuhin); host or cells: human sputum", "T1 sequence (P08246 30-267)": "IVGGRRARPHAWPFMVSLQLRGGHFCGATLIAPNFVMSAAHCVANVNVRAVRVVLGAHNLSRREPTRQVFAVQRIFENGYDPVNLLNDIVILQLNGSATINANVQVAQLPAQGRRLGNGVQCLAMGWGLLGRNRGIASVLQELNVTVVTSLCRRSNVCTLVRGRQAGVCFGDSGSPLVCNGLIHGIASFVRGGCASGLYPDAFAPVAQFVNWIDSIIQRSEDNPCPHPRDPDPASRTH", "test": "Serine protease inhibitory assay, Example 12: human elastase", "format": "biochemical", "details": "read-out: concentration of inhibitory protein which exhibits a 50% inhibition; enzyme 10^-9 M; MeO-Suc-Ala-Ala-Pro-Val-pNA 0.3 mM; 37° C.", "experimental": "(§1) To each well of a 96-well ELISA microplate were added 140 μl of the above-mentioned buffer, 20 μl of a test solution, and 20 μl of the enzyme solution, and the mixture was stirred at 37° C. for 30 minutes. Next, 20 μl of the substrate solution was added to the well, the mixture was stirred at 37° C. for one hour to develop same, and the absorbance at 405 nm was measured."}, "Calf pancreatic trypsin": {"molecular_target": "T2, Calf pancreatic trypsin (Bos taurus, UniProt P00760)", "T2 construct": "(2) Calf pancreatic trypsin (Sigma); purchased Sigma; host or cells: calf pancreas", "T2 sequence (P00760 24-246)": "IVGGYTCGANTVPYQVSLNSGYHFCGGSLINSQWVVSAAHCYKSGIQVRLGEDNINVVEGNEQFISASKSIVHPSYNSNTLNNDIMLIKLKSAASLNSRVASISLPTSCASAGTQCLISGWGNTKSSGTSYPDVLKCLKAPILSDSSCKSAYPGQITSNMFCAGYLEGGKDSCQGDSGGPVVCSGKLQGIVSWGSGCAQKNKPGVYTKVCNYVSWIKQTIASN", "test": "Serine protease inhibitory assay, Example 12: trypsin", "format": "biochemical", "details": "read-out: concentration of inhibitory protein which exhibits a 50% inhibition; enzyme 10^-7 M; Bz-Arg-pNA 1.0 mM; 37° C.", "experimental": "Assay of serine protease inhibitory activity of active-type (Asn^55 -Ala^107) SLPI fragment polypeptide\nThe active-type (Asn^55 -Ala^107) SLPI fragment polypeptide obtained by refolding by the procedure shown in Example 11 as measured to determine its inhibitory activity to various serine proteases. The assay result thereof is shown as follows.\nEnzyme solution: The following enzymes were dissolved in the above-mentioned buffer solutions at a concentration ten-times higher than the concentration shown in Table 4.\n(2) Calf pancreatic trypsin (Sigma)\nSubstrate solution: For the above-mentioned enzymes (1) to (7), the following substrates (1) to (7), respectively, were dissolved in dimethyl sulfoxyde to a concentration of 10 mM to prepare stock solutions, which were then dissolved in the above-mentioned buffer solution to concentration ten-times higher than final concentrations, to prepare substrate solutions. […]\nas §1\nMoreover, an inhibitory constant Ki of the present (Asn^55 -Ala^107) SLPI was calculated on the basis of the above data by a method of Dixon, M. and Webb, E. C. (1979), Enzyme, Longman or a method of Henderson, P. J. F. (1972) Biochem. J., 127, 321-333."}, "[2]": {"molecular_target": "T3, polymorphonuclear leucocyte elastase from human sputum (Homo sapiens, UniProt P08246)", "T3 construct": "Polymorphonuclear leukocyte elastase from human sputum (EPC Co; Funakoshi Yakuhin); purchased EPC Co. (via Funakoshi Yakuhin); host or cells: human sputum", "T3 sequence (P08246 30-267)": "T1 sequence (P08246 30-267)", "test": "Effect of serum albumin on elastase inhibitory activity (Example 13)", "format": "biochemical", "details": "in the presence of 0.8% or 8% calf serum albumin", "experimental": "The inhibitory activity of a active-form (Asn^55 -Ala^107) SLPI fragment polypeptide on polymorphonuclear leucocyte elastase from human sputum was measured by the same procedure as in Example 12 in the presence of 0.8% or 8% calf serum albumin."}, "[3]": {"molecular_target": "T1, polymorphonuclear leukocyte elastase from human sputum", "test": "Thermal stability (Example 14)", "format": "physicochemical", "details": "50 mM Tris-HCl (pH 7.8), 50° C. for 2 hours", "experimental": "After a solution of an active-type (Asn^55 -Ala^107) SLPI fragment polypeptide in 50 mM Tris-HCl (pH 7.8) was treated at 50° C. for 2 hours, the inhibitory activity on polymorphonuclear leukocyte elastase from human sputum was measured."}, "[4]": {"molecular_target": "T3, polymorphonuclear leucocyte elastase from human sputum", "test": "Simultaneous treatment with healthy human saliva and elastase (Examples 28, 29)", "format": "in vitro ADME", "details": "37° C.", "experimental": "(1) Healthy human saliva was ultra-filtered through a 0.22 μm filter (Millex GS, Millipore), and to the filtered saliva were added SLPI and polymorphonuclear leucocyte elastase from human sputum (EPC, Funakoshi Yakuhin) to a final concentration of 50 μM respectively. The mixture was incubated at 37° C., samples were taken as time elapsed, and analyzed by SDS-PAGE as described in Example 27.\n(2) Next, the band J was transferred to a membrane as described in Example 27, and N-terminal amino acid sequence was analyzed.\n(1) According to the same procedure as described in Example 28, to healthy human saliva were dissolved SLPI and polymorphonuclear leucocyte elastase from human sputum to final concentrations of 50 μM and 100 μM respectively, and the mixture was incubated at 37° C. Samples were taken as time elapsed, and analyzed by SDS-PAGE.\n(2) Next, N-terminal amino acid sequence of the band M was analyzed as described in Example 27."}}, "data": [{"substance": "(Asn^55 -Ala^107) SLPI: polypeptide having an amino acid sequence starting with the 55th Asn and ending at the 107th Ala of SLPI (NPTRRKPGKCPVTYGQCLMLNPPNFCEMDGQCKRDLKCCMGMCGKSCVSPVKA)", "values": [{"measurement": "IC50", "setting": "[1]", "value": 1, "unit": "nM"}, {"measurement": "IC50", "setting": "Calf pancreatic trypsin", "value": 130, "unit": "nM"}, {"measurement": "effect of calf serum albumin on elastase inhibitory activity", "setting": "[2]", "value": "had no effect on its activity"}, {"measurement": "elastase inhibitory activity after heat treatment (thermal stability)", "setting": "[3]", "value": "maintained at the same level"}, {"measurement": "SDS-PAGE bands on simultaneous treatment with healthy human saliva and elastase", "setting": "[4]; 50 μM polypeptide, elastase 50 μM (Example 28) or 100 μM (Example 29)", "value": "after 48 hours, almost only band M was observed"}, {"measurement": "cleavage site on simultaneous treatment with healthy human saliva and elastase", "setting": "[4]; N-terminal sequencing of SDS-PAGE band", "value": "cleaved at the site between Thr^57 -Arg^58"}]}]}
